# Measured values reported in US20210162028A1, “Methods for Inducing Intermittent Fasting and Modulating Autophagy” (The Hong Kong Polytechnic University, priority 2019, published 2021).
# “Also recorded” adds a separate entry of the source.
# How the values were obtained:
# [1] = Half-life / therapeutic duration in circulation; set-up: species or system mice; conditions: mouse, in vivo
# Text: As used herein, the term “half-life” or “½-life” refers to the time that would be required for the concentration of an agent, e.g., a fusion protein or arginine depleting agent as described herein, to fall by half in vitro or in vivo, for example, after injection into a mammal. In certain instances, the concentration of plasma arginine, after injection, is used herein as a proxy indicator of the half-life of the agent. In such instances, the term “therapeutic duration” is used to refer to the length of time a specified dosage of the arginine depleting agent is able to maintain the plasma concentration of arginine below a specified threshold concentration that a desired therapeutic effect is observed. In certain embodiments, the threshold concentration of plasma arginine is below 50 μM, below 40 μM, below 30 μM, below 20 μM, below 10 μM, below 5 μM, below 3 μM, or at a concentration below the detection limit of conventional analytical instrumentation.
# Importantly, the present invention used a new ABD fusion approach to join an ABD and an arginase together so that arginase activity can be retained. Stable and soluble arginase-ABD fusion molecules that can bind to FcRn in a pH-dependent manner were successfully generated, allowing for efficient endosomal recycling. […] Taken together, a variety of different approaches are available for fine-tuning the pharmacokinetic properties of arginases, ensuring appropriate residence time in circulation for different disease conditions. Another key issue in the development of any therapeutic protein is to minimize immunogenicity to avoid adverse effects. Thus, the observed low immunogenicity of human arginase and the successful deimmunization of ABD (e.g. ABD094), which was also used in the present disclosure as gene fusion partner to extend the in vivo half-life, are important.
# [2] = Daily food intake / 7-day intermittent fasting cycle in mice; format: in vivo, mouse
# Text: One of the most noticeable effects of intermittent fasting is reduction of bodyweight. […] Specifically, C57BL/6J, which is the most commonly used mouse strain for polygenic obesity model, was used in the study. It is well-reported that C57BL/6J male mice feeding on a high-fat diet will have prominent weight gain, become obese and develop hyperinsulinemia, hyperglycemia, impaired glucose tolerance and insulin resistance [Gallou-Kabani et al., 2007, Obesity 15(8):1996-2005]. Obesity was induced in C57BL/6J male mice via feeding ad libitum a high-fat diet containing 60 kcal % fat (HFD; Research Diets, D12492) for 12-14 weeks starting from 5-week old. These mice are referred as diet-induced obese (DIO) mice. DIO mice were stratified according to bodyweight into 2 groups. […] Both groups of mice continued to feed ad libitum on the HFD throughout the treatment period. One group of age-matched C57BL/6J male mice feeding ad libitum on an ordinary rodent chow diet (CD; LabDiet, 50IF/6F) and injected with vehicle served as the lean control [CD (vehicle) group]. Food intake and bodyweight of mice were measured daily. […] DIO mice were injected with rhArg on Day 0, which was Day 7 of the previous cycle. Similarly, Day 7 of the cycle shown in FIG. 1B was Day 0 of the next cycle. […] Bodyweight gain is one of the biomarkers related to aging.
# C57BL/6J male mice were fed a high-fat diet from 5-week old for 12 weeks. They were then stratified into 3 groups according to their bodyweight and individually caged: (i) one group of mice received i.p. injection of 600 U N-ABD094-rhArg (SEQ ID NO: 50) once a week [HFD (rhArg) group] and was fed ad libitum the HFD for 5 weeks; (ii) one group of mice received i.p. injection of saline once a week, and was fed a predetermined amount of HFD on each day to artificially create a 7-day intermittent fasting cycle that mimics the pattern of food intake of mice administered once a week with rhArg [HFD (artificial IF) group)]; (iii) one group of mice was injected with saline once a week and was fed ad libitum the HFD [HFD (vehicle) group].
# [3] = tested on: p62, LC3-II/LC3-I, p70S6K1, ULK1; assay: Western blotting of autophagy markers in brown adipose tissue; format: in vivo, mouse; conditions: 600 U once a week, 4 weeks
# Text: FIG. 49 illustrates the changes of relative p62 protein levels, detected by western blotting, at different days of a 7-day intermittent fasting cycle in the brown adipose tissue (BAT) of HFD-induced C57BL/6J DIO male mice administered with 600 U N-ABD094-rhArg (SEQ ID NO: 50) once a week for 4 weeks. The p62 protein is a receptor for cargo destined to be degraded by autophagy. The marked reduction in p62 levels from Day 1 to Day 3 indicated enhanced autophagy that coincided with the entry into the fasting phase. The increase in p62 levels from Day 5 to Day 7 implicated a decrease in autophagy, which coincided with the entry into the refeeding phase. *P<0.05, one-way ANOVA followed by Bonferroni test. Data are expressed as mean±SEM, n=4 for each group.
# Ratio of LC3II/LC3-I was used as a marker of autophagy and semiquantified by western blotting. Chloroquine (an autophagy inhibitor, CQ) were injected 5 hr to accumulate autophagosomes in the BAT before tissue collection. *P<0.05, one-way ANOVA followed by Bonferroni test. Data are expressed as mean±SEM, n=4 for [HFD (vehicle)] and [HFD (rhArg)] group without CQ; n=3 for CQ-treated group.
# Data are expressed as mean±SEM, n=4 each group.
# The p62, also known as SQSTMl/sequestome 1, serves as a link between LC3B and ubiquitinated substrates and is efficiently degraded by autophagy. Thus, the level of p62 proteins can be used to monitor autophagic flux. For example, autophagic suppression correlates with an increased p62 level, and similarly, autophagic activation correlates with a decreased p62 level. […] Besides, the expression level of autophagy marker LC3B was detected in presence or absence of CQ (FIG. 50). The conversion of LC3B -I to the lower migrating form, LC3B-II, is used as an indicator of cellular autophagy level. The higher the LC3B-II/LC3B-I ratio indicates the higher incidence rate of autophagy in the tissue.
# [4] = DIO C57BL/6J male mice on HFD, about 600 U i.p. once a week, 34 weeks
# [5] = DIO C57BL/6J male mice on HFD, about 600 U once a week, 49 weeks
# [6] = DIO male mice on HFD, Day 3 of cycle
molecule,measurement,setting,value
"N-ABD094-rhArg: recombinant human arginase fused to albumin binding domain ABD094 (SEQ ID NO: 50); engineered long-acting arginine-depleting enzyme (protein, N-ABD094-rhArg, Synthesized in the Lab, engineered long-acting arginine-depleting enzyme) MHHHHHHDEAVDANSLAEAKEAANAELDSYGVSDFYKRLIDKAKTVEGVEALKDAILAALPSGSNNNNNNGSGGMSAKSRTIGIIGAPFSKGQPRGGVEEGPTVLRKAGLLEKLKEQECDVKDYGDLPFADIPNDSPFQIVKNPRSVGKASEQLAGKVAEVKKNGRISLVLGGDHSLAIGSISGHARVHPDLGVIWVDAHTDINTPLTTTSGNLHGQPVSFLLKELKGKIPDVPGFSWVTPCISAKDIVYIGLRDVDPGEHYILKTLGIKYFSMTEVDRLGIGKVMEETLSYLLGRKKRPIHLSFDVDGLDPSFTPATGTPVVGGLTYREGLYITEEIYKTGLLSGLDIMEVNPSLGKTPEEVTRTVNTAVAITLACFGLAREGNHKPIDYLNPPK",Therapeutic duration (and half-life),[1],much longer than BHA and BAH
same,Pattern of food intake (intermittent fasting cycles),"[2]; 16-month old DIO C57BL/6J male mice on HFD, about 600 U once a week, 25 weeks",induce repetitive 7-day intermittent fasting cycles
same,Pattern of food intake (intermittent fasting cycles),"[2]; 17-month old C57BL/6J male mice on chow diet, about 600 U once a week, 21 weeks",induce repetitive 7-day intermittent fasting cycles
same,Pattern of food intake (intermittent fasting cycles),"[2]; 25-month old C57BL/6J male mice on chow diet, about 600 U once a week, 30 weeks",prominent repetitive 7-day intermittent fasting cycles
same,Pattern of food intake (intermittent fasting cycle),"[2]; DIO C57BL/6J male mice on HFD, 200 U rhArg i.p. once a week and/or 0.33 mg RA daily",weak 7 days intermittent fasting cycle
same,"Total food intake per week, less than HFD (vehicle) group","[2]; DIO C57BL/6J male mice on HFD, 200 U rhArg i.p. once a week and/or 0.33 mg RA daily by gastric feeding, 10 weeks","slight, but insignificant decrease"
same,Pattern of food intake (intermittent fasting cycle),"[2]; DIO C57BL/6J male mice on HFD, 200 U rhArg i.p. once a week and/or 0.33 mg RA daily, listed as rhArg","7-day pattern of decreased food intake followed by an increase of food intake, but the magnitude was less than HFD (rhArg+RA) group"
same,Pattern of food intake (intermittent fasting cycle),"[2]; DIO C57BL/6J male mice on HFD, 300 U rhArg i.p. once a week and/or 300 mg/kg metformin daily",weak intermittent fasting cycle
same,"Total food intake per week, less than HFD (vehicle) group","[2]; DIO C57BL/6J male mice on HFD, 300 U rhArg i.p. once a week and/or 300 mg/kg metformin daily by gastric feeding, 9 weeks",did not induce significant change in total food intake per week
same,Pattern of food intake (intermittent fasting cycle),"[2]; DIO C57BL/6J male mice on HFD, 300 U rhArg i.p. once a week and/or 300 mg/kg metformin daily, listed as rhArg","7-day pattern of decreased food intake followed by an increase of food intake, but the magnitude was less than HFD (rhArg+Met) group"
same,"Total food intake per week, less than HFD (vehicle) group","[2]; DIO C57BL/6J male mice on HFD, 600 U i.p. once a week, 5 weeks (artificial IF experiment)",26%
same,Reduction of total food intake per week,"[2]; DIO C57BL/6J male mice on HFD, 600 U i.p. once a week, 5 weeks (reduced daily food intake experiment)",30%
same,Pattern of food intake (intermittent fasting cycles),[2]; [4],repetitive cycles of intermittent fasting; also recorded: repetitive 7-day intermittent fasting cycles
same,"Total food intake per week, less than HFD (vehicle) group",[2]; [4],about 30%
same,Pattern of food intake (intermittent fasting cycles),[2]; [5],repetitive 7-day intermittent fasting cycles
same,"Total food intake per week, less than HFD (vehicle) group",[2]; [5],about 29%
same,Pattern of food intake (intermittent fasting cycles),"[2]; DIO C57BL/6J male mice on HFD, about 600 U once a week, 49 weeks, listed as rhArg",repetitive cycles of intermittent fasting
same,Pattern of food intake (intermittent fasting cycles),"[2]; DIO ICR female mice on HFD, about 1200 U i.p. once a week, 56 weeks",repeatedly occurring in ICR female mice throughout the 56 weeks of treatment period; also recorded: repetitive 7-day intermittent fasting cycles
same,p62 protein level in BAT,"[3]; DIO C57BL/6J male mice on HFD, days of the 7-day cycle",significant decrease in p62 level at Day 3 and Day 5
same,LC3-II/LC3-I ratio in BAT upon chloroquine injection,[3]; [6],dramatic increase upon injection of CQ
same,ULK1 in BAT,[3]; [6],stimulation
same,p70S6K1 in BAT,[3]; [6],significant suppression
